Literature values as cited in paper PMC8355678.

Columns and labels:
[1] = molecular target: CCL2 receptor on monocytes (Homo sapiens) (UniProt P41597)
CXCR3 (Homo sapiens) = CXCR3 (Homo sapiens) (UniProt P49682)
Chain of UniProt P49682 (P49682 whole entry): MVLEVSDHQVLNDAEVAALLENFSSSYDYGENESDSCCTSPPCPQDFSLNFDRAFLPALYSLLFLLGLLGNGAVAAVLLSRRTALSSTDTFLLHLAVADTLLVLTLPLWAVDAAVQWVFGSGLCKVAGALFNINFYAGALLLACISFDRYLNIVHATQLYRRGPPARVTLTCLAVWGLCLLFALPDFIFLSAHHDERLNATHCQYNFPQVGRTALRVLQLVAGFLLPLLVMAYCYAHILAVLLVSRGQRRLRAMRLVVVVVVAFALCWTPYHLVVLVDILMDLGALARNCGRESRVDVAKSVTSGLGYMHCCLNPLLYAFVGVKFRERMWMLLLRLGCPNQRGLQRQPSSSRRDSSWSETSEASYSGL

Chain of CCL2 (P13500 24-99): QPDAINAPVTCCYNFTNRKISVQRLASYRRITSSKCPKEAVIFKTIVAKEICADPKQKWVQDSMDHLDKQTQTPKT
Chain of UniProt P41597 (P41597 whole entry): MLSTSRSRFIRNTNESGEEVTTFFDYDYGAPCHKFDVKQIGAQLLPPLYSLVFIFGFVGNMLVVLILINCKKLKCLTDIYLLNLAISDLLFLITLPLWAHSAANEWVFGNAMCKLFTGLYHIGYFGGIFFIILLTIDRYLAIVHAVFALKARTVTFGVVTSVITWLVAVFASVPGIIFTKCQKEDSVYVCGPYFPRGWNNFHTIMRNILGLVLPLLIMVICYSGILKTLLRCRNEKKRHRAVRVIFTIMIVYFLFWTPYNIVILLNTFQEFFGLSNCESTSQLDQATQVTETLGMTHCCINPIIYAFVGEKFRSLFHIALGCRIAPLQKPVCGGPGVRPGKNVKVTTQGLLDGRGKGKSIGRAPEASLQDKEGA

## CCL2 (from UniProt P13500)
[1]
  Kd: 0.77 nM

## CXCL10 (from UniProt P02778)
CXCR3 (Homo sapiens)
  Kd: 0.25 nM
